One substance from publication PMC5727057 can be followed below.

Where “and” joins values, the source holds several entries; their conditions need not be identical. Equal values may be shown once. Read-outs that look alike come from different tables or passages of the source.

The term Kd denotes the free concentration of one partner at which half of the binding sites on the other are occupied at equilibrium, for simple one-to-one binding. A lower Kd goes with tighter binding.

In assay [1] the target is GmSKRP1 (protein used for isothermal titration calorimetry) (soybean). As to the kind of experiment: ITC; 40 μM GmSKRP1 in the cell titrated with 400 μM PsAvr3c from the syringe; 25 °C; 20 mM HEPES pH 7.5, 200 mM NaCl; one-site binding model; three independent experiments.
For assay [2] the target is unchanged. The description is as above. The source holds these as a separate data set.

As to “PsAvr3c (protein used for isothermal titration calorimetry) (natural protein)”, the Kd in assay [1] is 3.38 µM and 3.52 µM and 3.14 µM; in assay [2], 3.35 µM.
